Reference: patent US20070098735A1, “Methods for the Elimination of Pathogens and Other Particulate Agents” (priority 2005, published 2007)

Key:
[1] = target: Toll-like receptor-7 (TLR7) (murine) (UniProt P58681); test: cell-based or functional assay
[2] = system: full thickness surgical wounds on the dorsum of BALB/cJ mice; test: Closure of full thickness surgical wounds, percent wound closure; type: in vivo
Experimental: Surgery and Treatment. Mice were anesthetized using Ketamine (2.0 mg/mouse) and Xylazine (0.1 mg/mouse) were administered intraperitoneally (IP) and the dorsal skin was shaved. After sterile prepping of the area, a full thickness circular wound, 8 mm diameter, was made on the dorsal skin using a disposable biopsy punch (Miltex Inc, York, Pa.) on the midline of the dorsum approximately at the iliac crest. The mice were then randomly assigned into the treatment groups. Initial wound measurements were performed while the mice were still anesthetized. Mice were then treated on days 0, 2, 4, and 6 unless otherwise specified. All agents used as treatment were diluted in 0.5 ml of PBS and injected using a 25-gauge needle in the subcutaneous space in the nape of the neck. The surgical procedures, post-operative monitoring, and safety concerns were approved by the Institutional Animal Care and Usage Committee.
Measurements and Analysis. Wound healing of open wounds is a complex process with many parameters to consider. […] The wound surface area was determined by measuring the craniocaudal and lateromedial distances using vernier calipers in perpendicular axis on days 0, 2, 4, 6, 9, and 11 postoperatively unless noted. Changes in wound area were expressed as percent wound closure. Wound closure data was plotted as average percent wound closure ±SEM unless otherwise noted. All calculations and data analysis were performed using Microsoft Excel and Sigma Plot. Sigma Plot was used to perform Student's t-tests for reported P values.
Full thickness surgical wounds were created on the dorsum of BALB/cJ mice as described in Methods. Wounds were made on day 0. Subsequently, the wounds were treated with exogenous injections of HSP70, HSP90, gp96 (30 μg/dose) or buffer administered subcutaneously (SC) on days 0, 2, 4 and 6 following surgery (FIG. 6A). The wounds were measured on days 0, 2, 4, 6, 9, 11 unless otherwise noted. Wounds were measured serially, percent wound closure was calculated and plotted against time in order to quantitate the rate of healing by secondary intention. […] Data is plotted as average percent wound closure ±SEM on days indicated. Two mice from each treatment group (PBS (n=12), HSP70 (n=11), HSP90 (n=12), and gp96 (n=11)) were sacrificed for histology on days 2, 4, and 6 post-surgery (data not shown). The P values obtain using the Student's t-test.
Results are of average percent wound closure ±SEM on day 2 post surgery. The *P values were obtained using the Student's t-test by comparing HSP treatment to all of the non-HSP control treatments. The least significant P value was reported. […] Doses higher than 50 μg/dose were not tested.

[3] = system: full thickness wounds of naïve mice; test: Adoptive transfer of pre-treated RAW 264.7 macrophages into wounded mice, wound closure; type: in vivo; conditions: 400,000 macrophages pre-treated at 30 μg/dose; day 2 post surgery
Experimental: Macrophage Cell Culture, Pre-treatment, and Adoptive Transfer. RAW 264.7 macrophages (ATCC) were grown as described by ATCC. Cells were harvested by gently scraping them from the cell culture flasks, centrifuged and washed once in cultured grade PBS. […] They were then washed 3 times with PBS, and were re-suspended to achieve a concentration of 400,000, 40,000, or 4,000 cells per 0.5 ml PBS. Adoptive transfer of these cells was performed by subcutaneous injections in the nape of the neck using a 25-gauge needle in mice that were wounded as previously described. Adoptive transfers were given on days 0, 2 and 4 post-operatively.
Macrophages were treated in vitro with either HSPs or non-HSP controls and transferred into naïve wounded mice (as described in Materials and Methods) to test if HSPs could in part mediate some of their activity through macrophages. […] Data is plotted as average percent wound closure ±SEM on day 2. *P values were obtained using the Student's t-test by comparing HSP treatment to all of the non-HSP control treatments. The least significant P value was reported.
Titratability of adoptive transfer was examined by transferring 4,000, 40,000 or 400,000 macrophages pre-treated as described in Materials and Methods.

RAW 264.7 macrophages = test: In vitro macrophage phagocytosis of wound debris; type: cell-based, murine; conditions: RAW264.7, labeled wound debris
[4] = system: Murine macrophage lines (RAW264.7, J774.A1 or RAW264NO-); test: Phagocytosis assay in vitro (uptake of Alexa Fluor 488-labeled particles); type: cell-based
Experimental: Phagocytosis Assay in vitro. RAW 264.7, RAW264.7 (NO-) and J774A.1 cells were cultured in DMEM or RPMI (RAW NO-) with 10% FCS, harvested, and washed. 3×10^5 cells/well were incubated in serum-free Earle's minimal essential medium (EMEM) in a 24-well plate for 1 hour at 37° C. Alexa Fluor® 488-labeled particles (inert polystyrene microspheres; or yeast, Saccharomyces cerevisiae or Gram-negative bacteria, Escherichia coli, 40 particles/macrophage) were added and co-incubated in a dark environment for 60 minutes in serum free EMEM with or without HSPs, LPS, or control proteins. At the end of 60 minutes incubation, the plate was covered in a dark container on ice. Specific measures were taken to exclude the fluorescence that resulted from particles that were outside of the cell or sticking to the surface of the cell. […] Specifically, trypan blue (0.8 mg/ml) was added for 60 seconds and plates were analyzed immediately using FluorImager SI (Molecular Dynamics/Amersham). Since the emission of Alexa Fluor® 488, about 519 nm at an excitation of about 490 nm, falls within the absorbance range of trypan blue (475-675 nm), the fluorescence of the sample only represents the intracellular fluorescence. External or surface-bound fluorescence is quenched. Using Student's t test, the results were analyzed and P-values were calculated.
HSP-mediated phagocytosis was quantified by measuring the internalized fluorescence measured by FluorImager SI and Relative Mean Fluorescence Intensity (RMFI) was compared between the treatment groups (as indicated). All the treatment groups were compared to medium alone using the Student's t test and significance denoted by P<0.01. The error bar represents one standard deviation. The results shown are a cumulative analysis of 3 experiments, 3 wells/group.

[5] = system: macrophages (TNF-α release); test: TNF-α release by LPS-treated macrophages in presence or absence of serum; type: cell-based; conditions: serum-free conditions
Experimental: HSP70 used in all assays was purified using LPS-free sterile packaged plastic ware, baked glass ware (420° F. for 4 hours) and using endotoxin-free culture grade reagents to minimize inadvertent LPS contamination. Further, LPS levels and activity in the purified HSPs were quantified and confirmed to be <1 EU/mg of protein. Next, HSPs and LPS were compared for their influence on phagocytosis in presence or absence of serum. These conditions were specifically chosen since LPS-binding protein (LBP), an essential mediator for LPS function, is not present in serum-free conditions. As a control, macrophages were treated with LPS in presence or absence of serum and their ability to elicit TNF-α release was compared (FIG. 3A). […] Briefly, macrophages were treated with HSP70 (100 μg/ml) or LPS (different doses ranging 25 ng-1 μg/ml) in serum-free conditions for 1 hour and a phagocytosis assay was performed. […] The error bar is one standard deviation. The results shown are a cumulative analysis of 3 experiments, 3 wells/group.

TNF-α = test: Wound lysate cytokine production (cytometric bead assay), TNF-α; type: in vivo, mice; conditions: SC 30 μg dose
Experimental: Wound and Skin Lysate Cytokine Production. Mice were wounded and treated as stated previously. Wounds were harvested 24 hours after treatment, pulverized in 5 ml of PBS and large debris was removed by straining the wound lysate through a […] mesh strainer. The soluble fraction was then centrifuged for 20 minutes at 14,000 rpm. Protein concentration was then assessed by Bradford assay. Skin samples were taken and processed in the same manner. 250 μg of each sample was then tested for the presence of monocyte chemotactic peptide-1 (MCP-1), tumor necrosis factor-α (TNF-α), and interleukin 6 (IL-6) using the BD Biosciences cytometric bead assay (CBA) mouse inflammatory kit (BD Biosciences Pharmingen, San Diego, and CA.) following the manufacture's protocol.
The wounds were lysed and MCP-1, TNFα and IL-6 levels were quantified (pg/ml of 250 μg of protein). Each sample was tested in duplicate. *P values are the significant difference of cytokines found in wound lysate compared to skin lysate in a treatment group. **P values are the significant differences of cytokines found in PBS treated mice wound lysate compared to the treatment group wound lysate.

Sequence of Toll-like receptor-7 (TLR7) (murine) (P58681 27-1050): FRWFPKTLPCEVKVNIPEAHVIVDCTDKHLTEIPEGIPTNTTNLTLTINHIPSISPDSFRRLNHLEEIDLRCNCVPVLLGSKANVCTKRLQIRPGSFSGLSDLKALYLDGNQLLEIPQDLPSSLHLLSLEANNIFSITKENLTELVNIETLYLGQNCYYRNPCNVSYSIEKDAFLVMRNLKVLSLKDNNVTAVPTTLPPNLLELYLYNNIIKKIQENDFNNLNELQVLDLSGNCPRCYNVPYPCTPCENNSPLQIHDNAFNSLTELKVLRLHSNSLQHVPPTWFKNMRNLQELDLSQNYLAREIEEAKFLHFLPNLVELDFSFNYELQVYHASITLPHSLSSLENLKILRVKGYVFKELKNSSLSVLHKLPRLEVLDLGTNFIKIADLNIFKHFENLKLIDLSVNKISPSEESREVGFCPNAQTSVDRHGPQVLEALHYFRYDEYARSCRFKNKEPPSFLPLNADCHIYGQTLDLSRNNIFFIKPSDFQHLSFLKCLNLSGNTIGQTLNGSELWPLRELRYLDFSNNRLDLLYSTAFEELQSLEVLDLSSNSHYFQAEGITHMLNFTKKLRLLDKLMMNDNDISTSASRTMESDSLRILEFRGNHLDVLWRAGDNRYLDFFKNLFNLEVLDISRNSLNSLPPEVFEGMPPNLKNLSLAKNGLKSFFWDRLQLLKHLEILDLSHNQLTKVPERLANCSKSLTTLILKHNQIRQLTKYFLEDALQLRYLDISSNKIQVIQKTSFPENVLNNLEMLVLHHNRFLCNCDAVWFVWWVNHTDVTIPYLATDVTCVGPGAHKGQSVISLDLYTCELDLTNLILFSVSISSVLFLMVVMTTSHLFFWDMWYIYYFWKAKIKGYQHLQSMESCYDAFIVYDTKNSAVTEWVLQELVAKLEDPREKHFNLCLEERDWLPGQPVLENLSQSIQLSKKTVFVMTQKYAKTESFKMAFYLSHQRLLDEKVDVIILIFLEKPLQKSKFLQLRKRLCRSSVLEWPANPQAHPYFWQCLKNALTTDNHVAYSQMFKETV

Q: “HSP70 purified from murine livers (from UniProt P17879 2-642)” was tested. Which decrease in phagocytic activity of RAW264.7 cells treated with HSP70 in the presence of known TLR7-ligands, compared with HSP70 alone [1] did it give?
A: 45 to 65%

Q: Which results are given for “lipopolysaccharide [LPS, reference compound]”?
A: wound healing on day 2 ([2]; 30 μg/dose, day 2 post surgery): 25%; wound closure of non-HSP controls compared to PBS control ([2]; day 2 post surgery): not significantly different to the PBS control; benefit to the wounds ([2]; same doses as HSPs and significantly smaller quantities): not beneficial to the wounds at any of the doses tested; wound healing on day 2 after adoptive transfer of pre-treated macrophages [3]: 21%; mean fluorescence intensity compared to medium control (RAW 264.7 macrophages): not significantly different to the medium control; ability to enhance phagocytosis ([4]; serum-free conditions, 1 hour, HSP70 100 μg/ml, LPS 25 ng-1 μg/ml, heating 100° C. for 20 minutes): unable to enhance phagocytosis in serum-free conditions; stimulation of macrophages (TNF-α release) [5]: ineffective at stimulating macrophages

B1: gp96: heat shock protein (HSP90 family, endoplasmic reticulum) purified from murine livers (protein, UniProt P08113 22-802, looked up)
Endoplasmin: DDEVDVDGTVEEDLGKSREGSRTDDEVVQREEEAIQLDGLNASQIRELREKSEKFAFQAEVNRMMKLIINSLYKNKEIFLRELISNASDALDKIRLISLTDENALAGNEELTVKIKCDKEKNLLHVTDTGVGMTREELVKNLGTIAKSGTSEFLNKMTEAQEDGQSTSELIGQFGVGFYSAFLVADKVIVTSKHNNDTQHIWESDSNEFSVIADPRGNTLGRGTTITLVLKEEASDYLELDTIKNLVRKYSQFINFPIYVWSSKTETVEEPLEEDEAAKEEKEESDDEAAVEEEEEEKKPKTKKVEKTVWDWELMNDIKPIWQRPSKEVEEDEYKAFYKSFSKESDDPMAYIHFTAEGEVTFKSILFVPTSAPRGLFDEYGSKKSDYIKLYVRRVFITDDFHDMMPKYLNFVKGVVDSDDLPLNVSRETLQQHKLLKVIRKKLVRKTLDMIKKIADEKYNDTFWKEFGTNIKLGVIEDHSNRTRLAKLLRFQSSHHSTDITSLDQYVERMKEKQDKIYFMAGSSRKEAESSPFVERLLKKGYEVIYLTEPVDEYCIQALPEFDGKRFQNVAKEGVKFDESEKTKESREATEKEFEPLLNWMKDKALKDKIEKAVVSQRLTESPCALVASQYGWSGNMERIMKAQAYQTGKDISTNYYASQKKTFEINPRHPLIRDMLRRIKEDEDDKTVMDLAVVLFETATLRSGYLLPDTKAYGDRIERMLRLSLNIDPEAQVEEEPEEEPEDTSEDAEDSEQDEGEEMDAGTEEEEEETEKESTEKDEL
modifications: complexed with endogenous peptides
notes: heat shock protein (HSP90 family, endoplasmic reticulum) purified from murine livers
Q: For B1, which “wound closure compared to controls” value ([2]; 5 μg/dose and 50 μg/dose, day 2) is on record?
A: significant wound closure

Q: And the “wound healing at Day 11” value ([2]; 30 μg/dose SC on days 0, 2, 4 and 6)?
A: completely healed

Q: What about the “dose with the most significant difference in wound closure” value ([2]; doses 5, 30, 50 μg/dose tested) of the same molecule?
A: 30 μg/dose

Q: And the “TNF-α content of wounds compared to LPS or MSA” value (TNF-α)?
A: not significantly elevated

Q: And the “TNF-α content of wounds compared to buffer group” value (TNF-α)?
A: significantly increased

Q: What about the “uptake of microbial or non-microbial materials as compared to control proteins or buffer” value ([4]; HSPs 100 μg/ml, P<0.01 vs medium alone) of the same molecule?
A: increase in uptake
